Assay: soluble on expression in E. coli; label from the status in PepcDB or PDB records
For “HMMQSWSAPAIPVVPGRGPALRLFDSADRQVRPVTPGPTATMYVCGITPYDATHLGHAATYLTFDLVHRLWLDAGHTVQYVQNVTDVDDPLFERAERDGIDWRTLGDRETQLFREDMAALRVLPPHDYVAATDAIAEVVEMVEKLLASGAAYIVEDAEYPDVYFRADATAQFGYESGYDRDTMLTLFAERGGDPDRPGKSDQLDALLWRAERPGEPSWPSPFGRGRPGWHVECSAIALTRIGTGLDIQGGGSDLIFPHHEYSAAHAESVTGERRFARHYVHTGMIGWDGHKMSKSRGNLVLVSQLRAQGVDPSAIRLGLFSGHYREDRFWSNEVLDEANARLARWRSATALPEAPDATDVIARVRQYLADDLDTPKALAALDGWCTDALSYGGHDTESPRLVATTVDALLGVDL”, the “soluble on expression in E. coli” value was “soluble”.
With “MGHHHHHHSHMAEAKPDVWKSYNVGTVLFEDKASETKGSDIYHRIIPDAESYIKEQARTVLATLYNSPEDSITPVNKIHYTLEDIEGISAKGGGNGDVTIFYSTRHIEKSFAENDTAKLFFETRGVLLHELTHAYQLEPQGIGSYGTNRVFWAFIEGMADAVRVANGGFDGPNARPKGGNYMDGYRTAGYFFVWLRDNKDPEFLRKFNRSTLEVIPWSFDGAIKHILGTEYSIDELWHEYQVAVGDIQV” the “soluble on expression in E. coli” value was “soluble”.
With “MAKENPPIVFGPVLSRRFGKSLGVDLSPSKKQCNYNCIYCELGKAKPIERMEEVIKVETLINAIQNALNNLTTPIDVLTITANGEPTLYPHLLELIQSIKPFLKGVKTLILSNGSLFYEPKVQQALKEFDIVKFSLDAIDLKAFERVDKPYSKDINKILEGILRFSQIYQGQLVAEVLLIKGVNDSANNLKLIAAFLKQINIARVDLSTIDRPSSFKAPKLSEDELLKCSLFFEGLCVSLPKRSITQAKKLISCGIDELLALISRRPLSAEEAPLILDSNAFKHLETLLNHKQITIKKVGSLEFYCAFLEHHHHHH” the “soluble on expression in E. coli” value was “not soluble”.
For “MSLEKEAFMEKLLSFMKEEAYKPLTVQELEEMLNITEAEEFKELVKALVALEEKGLIVRTRSDRYGIPEKMNLIKGKISAHAKGFAFLLPEDTSLSDVFIPPNELNTAMNGDIVMVRLNSQSSGSRQEGTVIRILERAIQRVVGTYTETRNFGFVIPDDKKITSDIFIPKNGKNGAAEGHKVVVKLTSYPEGRMNAEGEVETILGHKNDPGIDILSVIHKHGLPGEFPADAMEQASSTPDTIDEKDLKDRRDLRDQVIVTIDGADAKDLDDAVTVTKLDDGSYKLGVHIADVSHYVTENSPIDKEALERGTSVYLVDRVIPMIPHRLSNGICSLNPKVDRLTLSCEMTINSQGQVTEHEIFQSVIKTTERMTYSDVNKILVDDDEELKQKYEPLVPMFKDMERLAQILRDKRMDRGAVDFDFKEAKVLVDDEGAVKDVVIRERSVAEKLIEEFMLVANETVAEHFHWMNVPFIYRIHEEPNAEKLQKFLEFVTTFGYVVKGTAGNIHPRALQSILDAVRDRPEETVISTVMLRSMKQAKYDPQSLGHFGLSTEFYTHFTSPIRRYPDLIVHRLIRTYLINGKVDEATQEKWAERLPDIAEHTSSMERRAVDAERETDDLKKAEYMLDKIGEEFDGMISSVTNFGMFVELPNTIEGLVHVSFMTDDYYRFDEQHFAMIGERTGNVFRIGDEITVKVVDVNKDERNIDFEIVGMKGTPRRPRELDSSRSRKRGKPARKRVQSTNTPVSPAPSEEKGEWFTKPKKKKKKRGFQNAPKQKRKKKKEGHHHHHH”, the “soluble on expression in E. coli” value was “soluble”.
With “MKKPELTATSVEKFLIEKFDSVSDLMQLSEGEESRAFSFDVGGRGYVLRVNSCADGFYKDRYVYRHFASAALPIPEVLDIGEFSESLTYCISRRAQGVTLQDLPETELPAVLQPVAEAMDAIAAADLSQTSGFGPFGPQGIGQYTTWRDFICAIADPHVYHWQTVMDDTVSASVAQALDELMLWAEDCPEVRHLVHADFGSNNVLTDNGRITAVIDWSEAMFGDSQYEVANIFFWRPWLACMEQQTRYFERRHPELAGSPRLRAYMLRIGLDQLYQSLVDGNFDDAAWAQGRCDAIVRSGAGTVGRTQIARRSAAVWTDGCVEVLADSGNRRPSTRPRAKE” the “soluble on expression in E. coli” value was “soluble”.
With “MGSDKIHHHHHHVHHRHHKKGIIHRDADEMIEFPKRSNDRLGETMIHGQIICHGTPLDYVRPYLSSKKYPRVIINICVSDDGGWYRLTTGNMFDLEGSVTFTVRHQCLMDKLPPMIQCAVPYYTTEVTIDLSSNTTYIGRSFELSKMEAYSSADCLY” the “soluble on expression in E. coli” value was “not soluble”.
With “MSLGFAGDGKTYTASELAIGLVMLMRQRGIEAGNRPVMFLDTETGSDWVKPRFDAENIELFTAKTRSFVDLLEAINEAESSGSVMIIDSISHFWTGLCDEYARRRNRKRGLEFSDWAWLKQEWRRFTDRFVNSQAHIIMCGRAGYEYDFFEGDDGKRQLAKTGIKMKAETETGYEPSIRIQMEKQMNIETGQVWRTARILKDRSTRIDGQVFSNPTFKNFLPHIESLNLGGEHPGIDTSRDNSELFANDGTPTWLKEKRAKEIALDEIIELLNKHHGGTSNDAKRAKADLLEKTFTSRSWERIKGMDWPTIKAGRNALWIELEGVEYAFPDEGHHHHHH” the “soluble on expression in E. coli” value was “soluble”.
In the case of “SLKEVLDEKFPSNNKLEVGLGRDISGDPITVPLNEMPHLLVAGSTGSGKSVCINGIITSILLNAKPHEVKLMLIDPKMVELNVYNGIPHLLIPVVTNPHKAAQALEKIVAEMERRYDLFQHSSTRNIKGYNELIRKQNQELDEKQPELPYIVVIVDELADLMMVAGKEVENAIQRITQMARAAGIHLIVATQRPSV”, the “soluble on expression in E. coli” value is reported as “not soluble”.
In the case of “MAVGTEESDFEGWAFPFPGVMLIEDFVTREEEAELVRLMDRDPWKLSQSGRRKQDYGPKVNFRKQKLKTEGFCGLPSFSREVVRRMGLYPGLEGFRPVEQCNLDYCPERGSAIDPHLDDAWLWGERLVSLNLLSPTVLSMCREAPGSLLLCSAPSAAPEALVDSVIAPSRSVLCQEVEVAIPLPARSLLVLTGAARHQWKHAIHRRHIEARRVCVTFRELSAEFGPGGRQQELGQELLRIALSFQGRPVLEHHHHHH”, the “soluble on expression in E. coli” value is reported as “soluble”.
For “MGSDKIHHHHHHMKALAIAATGMNAQQTNLEVIANNIANINTTGYKRARAEFSDLLYQVDRTQGVPNRSNASLVPEGVSIGLGVKTTAVRNVHTQGELTSTGNSFDMALTGRGWFQIEGADGGTLYTRAGAFNTNATGQLVTVDGANVIPAITVPTDAVEVIVNKTGQVFARIDGQTNLQTLGQLQIVNFANEAGLAPLGDNLFQETTASGPANAGVPGDPGFATIQQGYLEASNVDPVKEITELISAQRAYEMNSKVIQAADDMASVVSKNIR”, the “soluble on expression in E. coli” value was “not soluble”.
For “MGHHHHHHSHMTDIKILDACCGSRLFWFDKNEPHTTFMDVRQEKFEMHGKKINVNPDVIGDFRDMPFESNSFNLVVFDPPHLKYVGQNSIMKAQYGQLDKENWKEDISKGFEECMRVLKVGGTLVFKWSDCQVNVREVLSAIPFKPLFGQQRGTTHWMTFVKFELTGNGG”, the “soluble on expression in E. coli” value was “not soluble”.
With “MSLDPAHTPDPAHPHDQEAAHAEDPARAIGSARLLDVDPLLDDPGTRIVVCCGSGGVGKTTTAAALGLRAAERGRKVVVLTIDPARRLAQSMGIDSLDNIPRRVKGIDDSASGELHAMMLDMKRTFDEIVEAHADRERAAAILSNPFYQSLSAGFAGTQEYMAMEKLGQLRARDEWDLIIVDTPPSRSALDFLDAPKRLGSFLDGKLIRLLTAPAKLGGRAGMKFLNVGMSMMTGTLGKLLGGQLLKDVQTFVAAMDTTFGGFRTRADATYKLLQAPGTAFLVVAAPERDALREAAYFVERLAAEDMPLAGLVLNRVHGSGAAQLSAERALAAAENLDLAADPGSTENLEESRIVDQEGGKAGLRNSPDTYGSSESPADLTPADQTPASSEGSPATDGAVEQLTAGLLILHAERMQLLSREQRTRDRFAALHPEVAVAEVAALPGDVHDLTGLRDIGDRLAANRPELPTSPGGALEHHHHHH” the “soluble on expression in E. coli” value was “soluble”.
For “MSLKYYIGLACTGHENALAIVNPDGEIVFAEATERFLQNKRAVNTPPDDPLRIPRLLKQYCSDCDAIVVAKTWSREAPQKMRTDAAHILKALAGTDARTDRDWVARVAFHAGLGDKLIEPNYRLAGNGIERYCSLQGLEHSVRSYEHHLTHAAYACHTSPFDDAVCAVFDGYGEGVHSSYFHYRNGKVEPIRRARSAKGQYGSLASLGLYYGYTICALLGLDIVNGEEWKVMGLAPYGQLNPAFLDVLRRHIYVDGLDLVMDGNAAGTYRELQAFARRPGQSYESVADIAYTAQHYFSELMLEMLAGLRQLGLSDRLVLTGGCALNSTFNGEVIPRSGFAQLYVPPAPSDDGNAVGAALLAYAEDGGAMSRPAFHSPYLGSAIDDRELAPFLKNGAMLGQVPVTPGELCDYVAQELADGKVIGWIQGSAEFGPRSLGNRSILADPRRASMKERINAIVKFREGFRPFAPSILDEFGDRYFEDYSATPYMEKTLKIREAYREAIPAVCHVDHTGRLQTVRRDWNPRFHALLSAFHARTGTPVLLNTSLNVMGKPIVHSAADAFTVFLSTGLDLLVINDHVFSKREGHHHHHH”, the “soluble on expression in E. coli” value was “soluble”.
For “MSLLEKINSSTCTLRFKNDWLKIFTCPVPSSDFLSFVGVATIDAPQHAVLSLLYDIESATEWVWKTREMRVLQELADDNEGRVVYQVVSAPWPVSDREIISRSTAYKDPETGEVFIKIESLPDFIPETSNCVRVRKLEGAWNILPLSENSCRVVFRLHIEPAGEIPSWLANIAVIDTPYHTLNNMRDMVKREKYKNPVGAPLKESTEGIIRNYNDFITELEHHHHHH”, the “soluble on expression in E. coli” value was “soluble”.
For “ETVIMKYLLPTAAAGLLLLAAQPAMAQVKLQQSGAELVRSGTSVKLSCTASGFNIKDSYMHWLRQGPEQGLEWIGWIDPENGDTEYAPKFQGKATFTTDTSSNTAYLQLSSLTSEDTAVYYCNEGTPTGPYYFDYWGQGTTVTVSSGGGGSGGGGSGGGGSENVLTQSPAIMSASPGEKVTITCSASSSVSYMHWFQQKPGTSPKLWIYSTSNLASGVPARFSGSGSGTSYSLTISRMEAEDAATYYCQQRSSYPLTFGAGTKLELKRAAAEQKLISEEDLN”, the “soluble on expression in E. coli” value was “soluble”.
For “MKAVIVYASVHHGNTKKIAEAMASVISADVIDVTRKIKPDLSGYDVIGFASGVYFHTFHERIKKCIEENLFSKGQKVFLVATCGLGYRDYTKGIKDILAKKHVSFIGNFQCRGWDTYGIFGKIGGIAKKHPNDRDLKEAQQFVLKTVCEKTIDDVALLEHHHHHH”, the “soluble on expression in E. coli” value was “soluble”.
For “MGSDKIHHHHHHMDLTTAQVSRLISELETRLGTKLIQRSTRQQALTDIGATYAERCRQVISMVDEAEAEVTGTASKPKGRLRVLSMGSFGHHYVFPVMAEFCKHYPELTVEYTTSQYVPDLLAKGVDVSLYLTESLTDSRFVARRIGTIFSVLCASPAYLEKHGVPKSPEDLKNHACLRLVNPSITPDWHLLNANGESYQIDIGGQLIADNPELLLDVVQQDMGVALLPMFSALDAVQNGRLCHILPEWRSPDIGVYTLLPSRHFIDAKTRAWLDWVEEYISPKIEMDASYFYK”, the “soluble on expression in E. coli” value was “not soluble”.
With “MGSDKIHHHHHHMLKIELLESFIAVAECGNMSKAADKVCRTQSTLSLQIKKLEEVVGQSLLLRDNKGTTLTESGSTLLNYAYKMMQLNSQAIHDLKDCQNREIIRLGVPTDYIKFYLNSCLLEFIREFTCIELVIDTDVSGNLFKRLQQGEFDLIVATHWQAPVNGELLFSRRFHWAAAKNGQAHKRSTVPMALYPENCPIRAQVFANHQLSMRPINVLLSTPSPQALCMAVENDLAIAPIAEFRTNEHMQILDPHEHGLPPLPIFNESLYLNPETQTEATMQLITLIKANVEHLSDTID” the “soluble on expression in E. coli” value was “not soluble”.
For “MSSRTANSSSRNDESLRTGQHKENPNYWGFANFPNQVFRRAVKNGFDFTLMVVGRSGLGKSTFINTLFLAEINNLNEKESAPTHPHPSTVRVEEKLVKLVENSVSLNLTLVDTPGFGDAVNNSKCWEPIVNYVESKFFEQFCEETRIDRGEKIVDKCVHLCLYFIEPSGHGLKPIDIELMKHLHGRVNIVPVISKADCLTRDELLRFKKQIVKDAETAEIKLYKFPELEDPYTDKVAIEKLRKALPFAIIGSNMLKEKDGKKIRYREYPWGTVEVENMQHNDFLTLRDMIIRTNLIDMIDVTRNVHYENFRFRQMEGLPKNEKNRDPFTHLEEERRQKEQDLDEKRNTLEKVFTEKTSARKKRSDERMSALEELEQQNKQKIDAKRAEIIRLRHEISELKNGNLTSSQTSLAMYNENNHSQNSTLNSTTKSSPPPTSATSSSSGTMKKRMGGLGLFNRN”, the “soluble on expression in E. coli” value was “not soluble”.

Reference: the DeepSol protein solubility set
